This note sets out measurements from US20210300999A1.

The target of experiment [1] is SARS-CoV S2Pecto (SARS-CoV) (UniProt P59594). As to the kind of experiment: ELISA on coated antigen. (An ELISA detects its analyte on a solid surface through an enzyme-linked reagent.)
The target in experiment [2] is recombinant receptor binding domain (RBD) of SARS-CoV-2 spike protein, residues 319-528, deglycosylated (SARS-CoV-2) (UniProt P0DTC2). As to the kind of experiment: crystal structure RBD/COV2-2196/COV2-2130.
Experiment [3] shares this target. As to the kind of experiment: crystal structure RBD/COV2-2196.

Chain of COV2-2196 Fab (recombinant, wt sequence) (VH): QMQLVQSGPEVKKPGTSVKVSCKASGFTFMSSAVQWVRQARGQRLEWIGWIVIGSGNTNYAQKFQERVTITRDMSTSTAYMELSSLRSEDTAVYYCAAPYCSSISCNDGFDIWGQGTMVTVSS
Chain of COV2-2196 Fab (recombinant, wt sequence) (VL): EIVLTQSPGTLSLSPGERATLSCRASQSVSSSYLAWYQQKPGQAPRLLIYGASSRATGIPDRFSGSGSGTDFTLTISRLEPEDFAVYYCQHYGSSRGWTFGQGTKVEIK

Take COV2-2094 (antibody): the concentration for a half-maximal effect (EC50) (usually the concentration that produces a half-maximal response) in experiment [1] was 11.7 ng/mL.

Regarding “COV2-2196 Fab (recombinant, first two amino acids of the variable region mutated from QM to EV)”, in experiment [2], the buried surface area of the interface worked out at 650 Å^2.

As for “COV2-2196 Fab (recombinant, wt sequence)”, in experiment [3], the buried surface area of the interface was 650 Å^2.

“rCR3022 (recombinant form of the cross-reactive SARS-CoV SRBD mAb CR3022) (antibody)”: the concentration giving a half-maximal response (EC50) in experiment [1] is 5.2 ng/mL.
